System: Escherichia coli TOP10
Assay: shrunken log2 fold change of peptide-encoding DNA abundance (4.5 h post-induction vs induction); higher = less antimicrobial activity (less host growth inhibition)
Settings: time post-induction: 4.5 h; library: site-saturation at positions 5, 18, 19, 20
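Also: peptides expressed intracellularly from a pBAD plasmid library in pooled LB shake-flask culture, induced with 0.3% L-arabinose, DNA abundance read by NGS, three biological replicates, DESeq2 with apeglm shrinkage.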

RRIRYRPPRLPRPRPRPSVKPRP
shrunken log2 fold change: -0.119

RRIRYRPPRLPRPRPRPSVSPRP
shrunken log2 fold change: -0.747

RRIRYRPPRLPRPRPRPSYAPRP
shrunken log2 fold change: -0.149

RRIRYRPPRLPRPRPRPSYLPRP
shrunken log2 fold change: -1.08

RRIRYRPPRLPRPRPRPTANPRP
shrunken log2 fold change: -0.602

RRIRYRPPRLPRPRPRPTASPRP
shrunken log2 fold change: -0.389

RRIRYRPPRLPRPRPRPTEMPRP
shrunken log2 fold change: -0.306

RRIRYRPPRLPRPRPRPTETPRP
shrunken log2 fold change: -0.00564

RRIRYRPPRLPRPRPRPTFMPRP
shrunken log2 fold change: -0.0549

RRIRYRPPRLPRPRPRPTFWPRP
shrunken log2 fold change: 0.0421

RRIRYRPPRLPRPRPRPTGFPRP
shrunken log2 fold change: -0.0281

RRIRYRPPRLPRPRPRPTHDPRP
shrunken log2 fold change: 0.032

RRIRYRPPRLPRPRPRPTIQPRP
shrunken log2 fold change: -1.09

RRIRYRPPRLPRPRPRPTIYPRP
shrunken log2 fold change: -0.939

RRIRYRPPRLPRPRPRPTKPPRP
shrunken log2 fold change: -0.013

RRIRYRPPRLPRPRPRPTKYPRP
shrunken log2 fold change: -0.836

RRIRYRPPRLPRPRPRPTMFPRP
shrunken log2 fold change: -0.234

RRIRYRPPRLPRPRPRPTNGPRP
shrunken log2 fold change: -0.126

RRIRYRPPRLPRPRPRPTNRPRP
shrunken log2 fold change: -0.363

RRIRYRPPRLPRPRPRPTRHPRP
shrunken log2 fold change: -0.00457

RRIRYRPPRLPRPRPRPTRPPRP
shrunken log2 fold change: 0.472

RRIRYRPPRLPRPRPRPTSCPRP
shrunken log2 fold change: -0.331

RRIRYRPPRLPRPRPRPTSNPRP
shrunken log2 fold change: -0.276

RRIRYRPPRLPRPRPRPTSWPRP
shrunken log2 fold change: -0.138

RRIRYRPPRLPRPRPRPTWKPRP
shrunken log2 fold change: -0.333

RRIRYRPPRLPRPRPRPTYCPRP
shrunken log2 fold change: -0.165

RRIRYRPPRLPRPRPRPTYHPRP
shrunken log2 fold change: -0.663

RRIRYRPPRLPRPRPRPTYRPRP
shrunken log2 fold change: -0.27

RRIRYRPPRLPRPRPRPVACPRP
shrunken log2 fold change: -0.187

RRIRYRPPRLPRPRPRPVAHPRP
shrunken log2 fold change: -0.419

RRIRYRPPRLPRPRPRPVCKPRP
shrunken log2 fold change: -1.41

RRIRYRPPRLPRPRPRPVCNPRP
shrunken log2 fold change: -0.649

RRIRYRPPRLPRPRPRPVEIPRP
shrunken log2 fold change: -0.00968

RRIRYRPPRLPRPRPRPVGFPRP
shrunken log2 fold change: -0.308

RRIRYRPPRLPRPRPRPVGGPRP
shrunken log2 fold change: -0.179

RRIRYRPPRLPRPRPRPVGQPRP
shrunken log2 fold change: -0.106

RRIRYRPPRLPRPRPRPVHWPRP
shrunken log2 fold change: 0.0233

RRIRYRPPRLPRPRPRPVICPRP
shrunken log2 fold change: -0.0887

RRIRYRPPRLPRPRPRPVIFPRP
shrunken log2 fold change: -0.331

RRIRYRPPRLPRPRPRPVIHPRP
shrunken log2 fold change: -0.0643

RRIRYRPPRLPRPRPRPVIPPRP
shrunken log2 fold change: -0.0128

RRIRYRPPRLPRPRPRPVIVPRP
shrunken log2 fold change: -0.877

RRIRYRPPRLPRPRPRPVKIPRP
shrunken log2 fold change: -0.0138

RRIRYRPPRLPRPRPRPVMEPRP
shrunken log2 fold change: -0.0459

RRIRYRPPRLPRPRPRPVMLPRP
shrunken log2 fold change: -0.256

RRIRYRPPRLPRPRPRPVMPPRP
shrunken log2 fold change: 0.047

RRIRYRPPRLPRPRPRPVNTPRP
shrunken log2 fold change: -0.473

RRIRYRPPRLPRPRPRPVPIPRP
shrunken log2 fold change: -0.297

RRIRYRPPRLPRPRPRPVRNPRP
shrunken log2 fold change: -0.161

RRIRYRPPRLPRPRPRPVSCPRP
shrunken log2 fold change: -0.0731

RRIRYRPPRLPRPRPRPVSGPRP
shrunken log2 fold change: -0.128

RRIRYRPPRLPRPRPRPVTYPRP
shrunken log2 fold change: -0.41

RRIRYRPPRLPRPRPRPVWEPRP
shrunken log2 fold change: -0.3

RRIRYRPPRLPRPRPRPVWFPRP
shrunken log2 fold change: -0.129

RRIRYRPPRLPRPRPRPVYEPRP
shrunken log2 fold change: 2.81

RRIRYRPPRLPRPRPRPVYQPRP
shrunken log2 fold change: -0.341

RRIRYRPPRLPRPRPRPWAGPRP
shrunken log2 fold change: -0.53

RRIRYRPPRLPRPRPRPWATPRP
shrunken log2 fold change: -0.379

RRIRYRPPRLPRPRPRPWCDPRP
shrunken log2 fold change: -0.733

RRIRYRPPRLPRPRPRPWCKPRP
shrunken log2 fold change: -0.00141

RRIRYRPPRLPRPRPRPWCLPRP
shrunken log2 fold change: -0.634

RRIRYRPPRLPRPRPRPWCRPRP
shrunken log2 fold change: -0.414

RRIRYRPPRLPRPRPRPWCTPRP
shrunken log2 fold change: -1.06

RRIRYRPPRLPRPRPRPWDEPRP
shrunken log2 fold change: -0.999

RRIRYRPPRLPRPRPRPWDLPRP
shrunken log2 fold change: 0.0112

RRIRYRPPRLPRPRPRPWDQPRP
shrunken log2 fold change: 0.0123

RRIRYRPPRLPRPRPRPWDTPRP
shrunken log2 fold change: -0.639

RRIRYRPPRLPRPRPRPWFDPRP
shrunken log2 fold change: -0.415

RRIRYRPPRLPRPRPRPWFSPRP
shrunken log2 fold change: -0.346

RRIRYRPPRLPRPRPRPWFTPRP
shrunken log2 fold change: -0.165

RRIRYRPPRLPRPRPRPWGMPRP
shrunken log2 fold change: -0.364

RRIRYRPPRLPRPRPRPWGTPRP
shrunken log2 fold change: -0.0285

RRIRYRPPRLPRPRPRPWKNPRP
shrunken log2 fold change: -0.458

RRIRYRPPRLPRPRPRPWKSPRP
shrunken log2 fold change: -0.118

RRIRYRPPRLPRPRPRPWMCPRP
shrunken log2 fold change: -0.0907

RRIRYRPPRLPRPRPRPWNGPRP
shrunken log2 fold change: -0.155

RRIRYRPPRLPRPRPRPWQCPRP
shrunken log2 fold change: 0.06

RRIRYRPPRLPRPRPRPWQKPRP
shrunken log2 fold change: -0.166

RRIRYRPPRLPRPRPRPWRCPRP
shrunken log2 fold change: 2.33

RRIRYRPPRLPRPRPRPWRNPRP
shrunken log2 fold change: -0.00674

RRIRYRPPRLPRPRPRPWRRPRP
shrunken log2 fold change: -0.104

RRIRYRPPRLPRPRPRPWSAPRP
shrunken log2 fold change: -0.237

RRIRYRPPRLPRPRPRPWSGPRP
shrunken log2 fold change: -0.184

RRIRYRPPRLPRPRPRPWSLPRP
shrunken log2 fold change: 0.0143

RRIRYRPPRLPRPRPRPWSVPRP
shrunken log2 fold change: -0.554

RRIRYRPPRLPRPRPRPWTRPRP
shrunken log2 fold change: 0.0101

RRIRYRPPRLPRPRPRPWWCPRP
shrunken log2 fold change: -0.139

RRIRYRPPRLPRPRPRPWWEPRP
shrunken log2 fold change: -0.0644

RRIRYRPPRLPRPRPRPWYLPRP
shrunken log2 fold change: -0.268

RRIRYRPPRLPRPRPRPWYPPRP
shrunken log2 fold change: -0.485

RRIRYRPPRLPRPRPRPWYRPRP
shrunken log2 fold change: 0.729

RRIRYRPPRLPRPRPRPYCDPRP
shrunken log2 fold change: -0.379

RRIRYRPPRLPRPRPRPYCGPRP
shrunken log2 fold change: -0.456

RRIRYRPPRLPRPRPRPYCHPRP
shrunken log2 fold change: -0.435

RRIRYRPPRLPRPRPRPYFKPRP
shrunken log2 fold change: -1.83

RRIRYRPPRLPRPRPRPYFWPRP
shrunken log2 fold change: -1.4

RRIRYRPPRLPRPRPRPYFYPRP
shrunken log2 fold change: -0.49

RRIRYRPPRLPRPRPRPYGSPRP
shrunken log2 fold change: -0.843

RRIRYRPPRLPRPRPRPYIPPRP
shrunken log2 fold change: -0.457

RRIRYRPPRLPRPRPRPYIQPRP
shrunken log2 fold change: -0.294

RRIRYRPPRLPRPRPRPYKWPRP
shrunken log2 fold change: -0.169

RRIRYRPPRLPRPRPRPYLDPRP
shrunken log2 fold change: 0.0821

RRIRYRPPRLPRPRPRPYMAPRP
shrunken log2 fold change: -1.71

RRIRYRPPRLPRPRPRPYMPPRP
shrunken log2 fold change: -0.00804

RRIRYRPPRLPRPRPRPYNWPRP
shrunken log2 fold change: -0.593

RRIRYRPPRLPRPRPRPYPIPRP
shrunken log2 fold change: -0.376

RRIRYRPPRLPRPRPRPYPPPRP
shrunken log2 fold change: -0.673

RRIRYRPPRLPRPRPRPYPSPRP
shrunken log2 fold change: -0.248

RRIRYRPPRLPRPRPRPYPYPRP
shrunken log2 fold change: -0.0257

RRIRYRPPRLPRPRPRPYRMPRP
shrunken log2 fold change: -0.725

RRIRYRPPRLPRPRPRPYRNPRP
shrunken log2 fold change: -0.0228

RRIRYRPPRLPRPRPRPYSMPRP
shrunken log2 fold change: -0.0134

RRIRYRPPRLPRPRPRPYSVPRP
shrunken log2 fold change: -0.0202

RRIRYRPPRLPRPRPRPYTQPRP
shrunken log2 fold change: -0.273

RRIRYRPPRLPRPRPRPYVIPRP
shrunken log2 fold change: -1.19

RRIRYRPPRLPRPRPRPYVTPRP
shrunken log2 fold change: -0.115

RRIRYRPPRLPRPRPRPYWRPRP
shrunken log2 fold change: 0.0608

RRIRYRPPRLPRPRPRPYYEPRP
shrunken log2 fold change: -0.28

RRIRYRPPRLPRPRPRPYYHPRP
shrunken log2 fold change: -0.283

Source: the supplement of paper PMC9112550, “Optimization of the antimicrobial peptide Bac7 by deep mutational scanning” (BMC Biology, 2022)
